Source: the supplement of paper PMC9112550, “Optimization of the antimicrobial peptide Bac7 by deep mutational scanning” (BMC Biology, 2022)

Tested on: Escherichia coli TOP10
Test: shrunken log2 fold change of peptide-encoding DNA abundance (4.5 h post-induction vs induction); higher = less antimicrobial activity (less host growth inhibition)
Conditions: time post-induction: 4.5 h; library: site-saturation at positions 5, 18, 19, 20
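Further: peptides expressed intracellularly from a pBAD plasmid library in pooled LB shake-flask culture, induced with 0.3% L-arabinose, DNA abundance read by NGS, three biological replicates, DESeq2 with apeglm shrinkage.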

Sequence	shrunken log2 fold change
RRIRYRPPRLPRPRPRPKGIPRP	-0.228
RRIRHRPPRLPRPRPRPINDPRP	-0.887
RRIRFRPPRLPRPRPRPVPVPRP	0.143
RRIRRRPPRLPRPRPRPQGLPRP	0.143
RRIRWRPPRLPRPRPRPIPDPRP	-0.0879
RRIRDRPPRLPRPRPRPGNDPRP	0.0652
RRIRLRPPRLPRPRPRPDTWPRP	0.0224
RRIRDRPPRLPRPRPRPWMKPRP	-0.0188
RRIRRRPPRLPRPRPRPKSFPRP	0.0604
RRIRIRPPRLPRPRPRPINRPRP	-0.312
RRIRIRPPRLPRPRPRPGWFPRP	-0.141
RRIRIRPPRLPRPRPRPNECPRP	-0.0258
RRIRIRPPRLPRPRPRPGKNPRP	-0.597
RRIRHRPPRLPRPRPRPLSFPRP	-0.137
RRIRFRPPRLPRPRPRPLRAPRP	0.821
RRIRPRPPRLPRPRPRPHEQPRP	0.0602
RRIRHRPPRLPRPRPRPCCFPRP	-0.245
RRIRTRPPRLPRPRPRPHPMPRP	-0.167
RRIRIRPPRLPRPRPRPMPSPRP	-0.0227
RRIRCRPPRLPRPRPRPFQPPRP	-0.281
RRIRFRPPRLPRPRPRPSQIPRP	-0.253
RRIRWRPPRLPRPRPRPWMTPRP	0.333
RRIRHRPPRLPRPRPRPVTKPRP	-0.055
RRIRHRPPRLPRPRPRPRTWPRP	0.207
RRIRGRPPRLPRPRPRPVPYPRP	0.11

Sequence	shrunken log2 fold change
RRIRMRPPRLPRPRPRPPICPRP	0.292
RRIRCRPPRLPRPRPRPWGKPRP	-0.102
RRIRYRPPRLPRPRPRPGRNPRP	0.191
RRIRRRPPRLPRPRPRPSFHPRP	-0.182
RRIRARPPRLPRPRPRPEQFPRP	0.218
RRIRNRPPRLPRPRPRPQQMPRP	0.0512
RRIRLRPPRLPRPRPRPNATPRP	0.0161
RRIRERPPRLPRPRPRPRNNPRP	-0.441
RRIRRRPPRLPRPRPRPCPWPRP	-0.0433
RRIRNRPPRLPRPRPRPSQMPRP	-0.232
RRIRARPPRLPRPRPRPGFAPRP	0.57
RRIRERPPRLPRPRPRPNQWPRP	0.062
RRIRRRPPRLPRPRPRPIMFPRP	-0.0974
RRIRDRPPRLPRPRPRPYFWPRP	-0.0487
RRIRYRPPRLPRPRPRPTIPPRP	-0.572
RRIRFRPPRLPRPRPRPDCGPRP	-0.107
RRIRRRPPRLPRPRPRPMKFPRP	0.212
RRIRRRPPRLPRPRPRPCFAPRP	0.442
RRIRGRPPRLPRPRPRPPIKPRP	0.403
RRIRMRPPRLPRPRPRPPDIPRP	0.121
RRIRQRPPRLPRPRPRPCHYPRP	-0.000921
RRIRWRPPRLPRPRPRPFWQPRP	-0.00499
RRIRMRPPRLPRPRPRPSSDPRP	0.111
RRIRSRPPRLPRPRPRPPRGPRP	0.638
RRIRMRPPRLPRPRPRPVCRPRP	1.48

Sequence	shrunken log2 fold change
RRIRRRPPRLPRPRPRPVETPRP	0.181
RRIRERPPRLPRPRPRPGGHPRP	0.0363
RRIRKRPPRLPRPRPRPEPCPRP	0.0397
RRIRHRPPRLPRPRPRPGPSPRP	0.188
RRIRERPPRLPRPRPRPKYSPRP	-0.866
RRIRWRPPRLPRPRPRPGMMPRP	0.113
RRIRIRPPRLPRPRPRPEEFPRP	-0.0304
RRIRLRPPRLPRPRPRPKLFPRP	0.306
RRIRIRPPRLPRPRPRPYTGPRP	-0.177
RRIRLRPPRLPRPRPRPGIIPRP	-0.116
RRIRQRPPRLPRPRPRPIGGPRP	-0.0328
RRIRTRPPRLPRPRPRPNHVPRP	-0.0538
RRIRHRPPRLPRPRPRPCTEPRP	-0.138
RRIRRRPPRLPRPRPRPYRCPRP	-1.3
RRIRPRPPRLPRPRPRPGNWPRP	0.0527
RRIRARPPRLPRPRPRPIPHPRP	0.0126
RRIRFRPPRLPRPRPRPRDKPRP	-0.102
RRIRHRPPRLPRPRPRPDGIPRP	-0.0529
RRIRIRPPRLPRPRPRPSKGPRP	-0.142
RRIRNRPPRLPRPRPRPSQWPRP	-0.194
RRIRRRPPRLPRPRPRPLECPRP	0.0527
RRIRGRPPRLPRPRPRPEQPPRP	1.68
RRIRERPPRLPRPRPRPYDSPRP	-0.0594
RRIRPRPPRLPRPRPRPNNQPRP	-0.353
RRIRPRPPRLPRPRPRPMEWPRP	-0.0225

Sequence	shrunken log2 fold change
RRIRSRPPRLPRPRPRPCSYPRP	-0.379
RRIRERPPRLPRPRPRPWIWPRP	0.164
RRIRMRPPRLPRPRPRPYQLPRP	0.0393
RRIRWRPPRLPRPRPRPLIFPRP	-0.215
RRIRMRPPRLPRPRPRPATVPRP	0.323
RRIRPRPPRLPRPRPRPQTPPRP	0.313
RRIRVRPPRLPRPRPRPIFNPRP	-0.274
RRIRKRPPRLPRPRPRPSHNPRP	-0.351
RRIRNRPPRLPRPRPRPVVPPRP	0.0751
RRIRCRPPRLPRPRPRPDTDPRP	-0.0352
RRIRVRPPRLPRPRPRPQGGPRP	-0.0824
RRIRDRPPRLPRPRPRPIVRPRP	-0.00112
RRIRPRPPRLPRPRPRPCTPPRP	-0.167
RRIRVRPPRLPRPRPRPIAYPRP	-0.184
RRIRFRPPRLPRPRPRPEVRPRP	0.14
RRIRFRPPRLPRPRPRPSIIPRP	-0.279
RRIRTRPPRLPRPRPRPDIQPRP	-0.531
RRIRIRPPRLPRPRPRPDAPPRP	0.14
RRIRQRPPRLPRPRPRPFRNPRP	0.033
RRIRERPPRLPRPRPRPHMLPRP	-0.376
RRIRCRPPRLPRPRPRPWMEPRP	-0.344
RRIRERPPRLPRPRPRPQKTPRP	-0.0465
RRIRERPPRLPRPRPRPIVFPRP	0.0592
RRIRNRPPRLPRPRPRPINVPRP	-0.0327
RRIRCRPPRLPRPRPRPRYGPRP	-0.499

Sequence	shrunken log2 fold change
RRIRPRPPRLPRPRPRPVVSPRP	-0.0387
RRIRNRPPRLPRPRPRPILFPRP	-0.396
RRIRNRPPRLPRPRPRPHINPRP	-1.02
RRIRARPPRLPRPRPRPTVYPRP	-0.00696
RRIRWRPPRLPRPRPRPASDPRP	0.342
RRIRPRPPRLPRPRPRPAPHPRP	0.402
RRIRMRPPRLPRPRPRPYCCPRP	-0.348
RRIRCRPPRLPRPRPRPHHPPRP	-0.37
RRIRRRPPRLPRPRPRPGPIPRP	0.174
RRIRSRPPRLPRPRPRPPWAPRP	0.643
RRIRMRPPRLPRPRPRPSEVPRP	0.159
RRIRQRPPRLPRPRPRPARFPRP	0.0469
RRIRLRPPRLPRPRPRPRPGPRP	0.687
RRIRNRPPRLPRPRPRPVFFPRP	-0.223
RRIRNRPPRLPRPRPRPWLQPRP	-0.0113
RRIRTRPPRLPRPRPRPIHMPRP	-0.171
RRIRIRPPRLPRPRPRPYYTPRP	-0.389
RRIRQRPPRLPRPRPRPECNPRP	0.062
RRIRVRPPRLPRPRPRPQMWPRP	0.0478
RRIRMRPPRLPRPRPRPELYPRP	0.0658
RRIRARPPRLPRPRPRPTRFPRP	0.737
RRIRGRPPRLPRPRPRPDCNPRP	0.679
RRIRIRPPRLPRPRPRPMLFPRP	-0.328
RRIRIRPPRLPRPRPRPKPRPRP	0.576
RRIRSRPPRLPRPRPRPKAKPRP	0.626
